# Laboratory results published in patent US20250361296A1.
# What was measured:
# Test in all cases: flow cytometry, CHO-S cells expressing the target
# [1] = molecular target: human SIGLEC15 on CHO-S-hSIGLEC15 cells (human) (UniProt Q6ZMC9)
# [2] = molecular target: Macaca fascicularis (crab-eating macaque) SIGLEC15 on CHO-S-fasSIGLEC15 cells (Macaca fascicularis (crab-eating macaque))
# [3] = molecular target: mouse SIGLEC15 on CHO-S-mSIGLEC15 cells (mouse)
# [4] = molecular target: dog SIGLEC15 on CHO-S-dSIGLEC15 cells (dog)
# Chain of dog SIGLEC15 on CHO-S-dSIGLEC15 cells (dog) (chain, as listed by the source limits assumed): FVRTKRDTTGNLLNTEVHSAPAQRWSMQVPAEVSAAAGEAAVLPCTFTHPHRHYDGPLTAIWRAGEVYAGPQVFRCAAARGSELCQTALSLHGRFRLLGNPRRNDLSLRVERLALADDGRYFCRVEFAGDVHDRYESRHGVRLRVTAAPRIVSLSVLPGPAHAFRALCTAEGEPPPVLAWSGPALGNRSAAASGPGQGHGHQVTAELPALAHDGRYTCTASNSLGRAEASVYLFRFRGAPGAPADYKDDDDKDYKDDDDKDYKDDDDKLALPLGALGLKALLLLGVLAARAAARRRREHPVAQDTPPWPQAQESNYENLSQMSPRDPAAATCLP
# Chain of mouse SIGLEC15 on CHO-S-mSIGLEC15 cells (mouse) (chain, as listed by the source limits assumed): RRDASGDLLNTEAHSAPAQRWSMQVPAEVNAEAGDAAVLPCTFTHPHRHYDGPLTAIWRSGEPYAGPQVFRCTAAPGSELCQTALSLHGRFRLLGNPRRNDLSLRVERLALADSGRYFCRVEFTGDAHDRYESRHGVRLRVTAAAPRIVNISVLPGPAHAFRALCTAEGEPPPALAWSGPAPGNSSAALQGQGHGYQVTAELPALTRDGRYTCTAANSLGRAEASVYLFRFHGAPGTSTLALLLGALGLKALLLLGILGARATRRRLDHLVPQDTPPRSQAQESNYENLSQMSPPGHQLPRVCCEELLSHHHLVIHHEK
# Chain of human SIGLEC15 on CHO-S-hSIGLEC15 cells (human) (Q6ZMC9 20-328 limits assumed): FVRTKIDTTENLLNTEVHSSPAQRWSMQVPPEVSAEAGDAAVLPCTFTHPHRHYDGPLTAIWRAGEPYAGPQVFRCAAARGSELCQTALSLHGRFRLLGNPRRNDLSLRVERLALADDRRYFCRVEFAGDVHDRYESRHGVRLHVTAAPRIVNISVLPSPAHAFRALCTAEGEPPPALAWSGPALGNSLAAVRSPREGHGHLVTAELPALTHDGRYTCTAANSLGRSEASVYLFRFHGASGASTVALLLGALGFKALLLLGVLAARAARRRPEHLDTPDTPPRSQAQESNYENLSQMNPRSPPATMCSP
Percentage of Positive Cells [1] [%],Percentage of Positive Cells [2] [%],Percentage of Positive Cells [3] [%],Percentage of Positive Cells [4] [%],Substance
0.1,0.2,0.1,0.6,NC
0,0,0.3,0.7,NC + secondary antibody
